According to patent publication EP4628507A1 (Jiangsu Hengrui Pharmaceuticals Co., Ltd., dated 2025):
Like-named read-outs stand apart in the source and are kept apart here.

Tests used:
[1] = molecular target: T1, human 4-1BB on the surface of HEK293-Hu4-1BB cells (human, UniProt Q07011 24-255); assay: flow cytometry on HEK293-Hu4-1BB cells
T1 construct: whole, on cells; also called CD137; TNFRSF9

[2] = molecular target: T1, human 4-1BB on the surface of …; assay: cell-based or functional assay
[3] = molecular target: T1, human 4-1BB on the surface of …; assay: cell-based or functional assay; remark: listed apart in the source
[4] = molecular target: T1, human 4-1BB on the surface of …; assay: flow cytometry on HEK293-Hu4-1BB cells; remark: listed apart in the source

T1 sequence (Q07011 24-255): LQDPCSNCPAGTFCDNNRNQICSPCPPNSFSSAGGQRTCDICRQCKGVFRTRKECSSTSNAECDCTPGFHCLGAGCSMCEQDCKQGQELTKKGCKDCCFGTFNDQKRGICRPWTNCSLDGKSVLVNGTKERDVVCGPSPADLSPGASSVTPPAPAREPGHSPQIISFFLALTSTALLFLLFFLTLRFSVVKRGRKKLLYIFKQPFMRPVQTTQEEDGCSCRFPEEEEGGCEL

EC50 [1]: 1.18 nM
Fold change in Emax, FcγRIIb-mediated activation of HEK293-4-1BB cells [2]: 2.61 fold
Fold change in Emax, activation of HEK293-4-1BB cells (no FcγRIIb) [2]: 1.7 fold
EC50, 4-1BB/NF-κB luciferase reporter, FcγRIIb cross-linking [3]: 0.027 nM
EC50, 4-1BB/NF-κB luciferase reporter, no FcγRIIb cross-linking [3]: 2.19 nM
Emax, 4-1BB/NF-κB luciferase reporter, FcγRIIb cross-linking [3]: 9.39 relative to the antibody-free group
Emax, 4-1BB/NF-κB luciferase reporter, no FcγRIIb cross-linking [3]: 4.3 relative to the antibody-free group
EC50 [4]: 1.64 nM
B1: Urelumab (antibody, V domains shown)
VH: QVQLQQWGAGLLKPSETLSLTCAVYGGSFSGYYWSWIRQSPEKGLEWIGEINHGGYVTYNPSLESRVTISVDTSKNQFSLKLSSVTAADTAVYYCARDYGPGNYDWYFDLWGRGTLVTVSS
VL: EIVLTQSPATLSLSPGERATLSCRASQSVSSYLAWYQQKPGQAPRLLIYDASNRATGIPARFSGSGSGTDFTLTISSLEPEDFAVYYCQQRSNWPPALTFGGGTKVEIK
